# According to article PMC11470758:
# B1: fragment #3 (dsDNA)
# DNA 1: GTCCAGAAAAATACCGATTGACTAATGTGGTCTGAAAATTATACCAAGAATGCAGGGCAG
# DNA 2: CTGCCCTGCATTCTTGGTATAATTTTCAGACCACATTAGTCAATCGGTATTTTTCTGGAC
# Assays:
# [1] = biological target: T1, MBP-GlcR (MGlcR) (Paracoccus denitrificans) (UniProt A1BAC0); test: EMSA; conditions: EMSA buffer, salt, pH and temperature not given in the material
# T1 sequence: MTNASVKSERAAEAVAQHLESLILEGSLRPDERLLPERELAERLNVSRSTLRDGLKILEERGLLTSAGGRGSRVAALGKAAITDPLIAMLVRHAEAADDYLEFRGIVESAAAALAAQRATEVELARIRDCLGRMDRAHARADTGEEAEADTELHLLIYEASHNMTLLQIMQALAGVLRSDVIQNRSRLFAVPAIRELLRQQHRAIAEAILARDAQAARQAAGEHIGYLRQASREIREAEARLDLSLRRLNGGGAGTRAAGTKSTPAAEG
# MBP-GlcR (MGlcR) = biological target: T2, MBP-GlcR (MGlcR) (Paracoccus denitrificans, UniProt A1BAC0 1-269); test: EMSA
# T2 sequence: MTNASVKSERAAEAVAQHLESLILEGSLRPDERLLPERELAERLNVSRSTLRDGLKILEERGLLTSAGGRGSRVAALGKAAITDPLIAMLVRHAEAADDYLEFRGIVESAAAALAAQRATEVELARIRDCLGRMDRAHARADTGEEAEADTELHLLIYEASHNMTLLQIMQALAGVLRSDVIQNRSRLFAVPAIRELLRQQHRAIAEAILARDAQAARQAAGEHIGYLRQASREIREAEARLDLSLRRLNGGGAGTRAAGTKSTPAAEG
Molecule,binding [1],binding result (MBP-GlcR (MGlcR))
CTTTCTAGATCACGCACGCGCCAGGATGCCCGCATCGGGCCGGGGCATGGCAATACCGGACAAGCTCTCCTCCCTTGGTCGAACGGCAGGCCCGTGTCCTGCCCTGCATTCTTGGTATAATTTTCAGACCACATTAGTCAATCGGTATTTTTCTGGACCGACACGCCCGTCCTGTGCTTACATGGCAGGGATCCGACAACCGCATGAGCGCCCATGACCAACGCATCCGTGAAATCCGAACGCGCCGCCGAGGCCGTGGCCCAGTGAGAATTCATATC (double strand) [pden4399-4400 intergenic sequence],binds,–
B1,–,binds
